Substitutions are numbered along the chain they refer to. Names and notes keep the numbering of the source.
B1: Bis-108+147-N37K.L (bispecific antibody, V domains shown)
VH 1: EVQLVQSGAEVKKPGASVKVSCKASGYTFTSYVIHWVRQAPGQGLEWMGYFNPYNDGTKYNEEFKGRVTLTSDKSTSTAYMELRSLRSDDTAVYYCARGGVRRYFDVWGQGTTVTVSS
VL 1: DIQMTQSPSSLSASVGDRVTITCRASQDIGSNLNWLQQKPGKAIKRLIYATFGLDSGVPSRFSGSRSGTDFTLTISSLQPEDFATYYCQQYASFPYTFGGGTKVEIK
VH 2: EVQLVQSGAEVKKPGSSVKVSCKASGYTFTSYWMHWVRQAPGQCLEWMGNINPSSGATNYNEKFKSRVTLTVDKSTSTAYMELSSLRSEDTAVYYCARDRSSQYYFDYWGQGTTVTVSS
VL 2: DIVMTQSPDSLAVSLGERATINCKSSQSLLNSRSRKKYLAWYQQKPGQPPKLLIYWASTRESGVPDRFSGSGSGTDFTLTISSLQAEDVAVYYCTQSYTLRTFGCGTKVEIK
notes: Fab-scFv-Fab (2+1): first VH/VL = anti-GPRC5D Fabs, second VH/VL = anti-CD3 scFv
B2: Bis-108+147-S32R.L (bispecific antibody, V domains shown)
VH 1: B1 VH 1
VL 1: B1 VL 1
VH 2: B1 VH 2
VL 2: B1 VL 2 with S32R, K37N
notes: as for B1
B3: Bis-108+147-R33A.L (bispecific antibody, V domains shown)
VH 1: B1 VH 1
VL 1: B1 VL 1
VH 2: B1 VH 2
VL 2: B1 VL 2 with R33A, K37N
notes: as for B1
B4: Bis-108+147-R35S.L (bispecific antibody, V domains shown)
VH 1: B1 VH 1
VL 1: B1 VL 1
VH 2: B1 VH 2
VL 2: B1 VL 2 with R35S, K37N
notes: as for B1
B5: Bis-108+147-S31R.H (bispecific antibody, V domains shown)
VH 1: B1 VH 1
VL 1: B1 VL 1
VH 2: B1 VH 2 with S31R
VL 2: B1 VL 2 with K37N
notes: as for B1
B6: Bis-108+147-S102Q.H (bispecific antibody, V domains shown)
VH 1: B1 VH 1
VL 1: B1 VL 1
VH 2: B1 VH 2 with S102Q
VL 2: B1 VL 2 with K37N
notes: as for B1
B7: Bis-108+147-S54R.H (bispecific antibody, V domains shown)
VH 1: B1 VH 1
VL 1: B1 VL 1
VH 2: B1 VH 2 with S54R
VL 2: B1 VL 2 with K37N
notes: as for B1
B8: Bis-108+147-R35K.L (bispecific antibody, V domains shown)
VH 1: B1 VH 1
VL 1: B1 VL 1
VH 2: B1 VH 2
VL 2: B1 VL 2 with R35K, K37N
notes: as for B1
B9: Bis-108+147-R100Q.H (bispecific antibody, V domains shown)
VH 1: B1 VH 1
VL 1: B1 VL 1
VH 2: B1 VH 2 with R100Q
VL 2: B1 VL 2 with K37N
notes: as for B1
B10: Bis-40E9-L2H3 (bispecific antibody, human IgG1, kappa, L234A L235A)
heavy 1: not shown
heavy 2: EVQLVQSGAEVKKPGASVKVSCKASGYTFTSYVIHWVRQAPGQGLEWMGYFNPYNDGTKYNEEFKGRVTLTSDKSTSTAYMELRSLRSDDTAVYYCARGGVRRYFDVWGQGTTVTVSSASTKGPSVFPLAPSSKSTSGGTAALGCLVKDYFPEPVTVSWNSGALTSGVHTFPAVLQSSGLYSLSSVVTVPSSSLGTQTYICNVNHKPSNTKVDKKVEPKSCGGGGSGGGGSEVQLVQSGAEVKKPGSSVKVSCKASGYTFSSYVIHWVRQAPGQCLEWMGYINPYNDVIKYNEKFKGRVTLTSDKSTSTAYMELSSLRSEDTAVYYCARDSYYSYDGFAYWGQGTLVTVSSGGGGSGGGGSGGGGSGGGGSEIVLTQSPDFQSVTPKEKVTITCSASSSVSYMHWYQQKPDQSPKRLIYDTSKLASGVPSRFSGSGSGTDFTLTINSLEAEDAATYYCQQWSSNPPTFGCGTKVEIKGGGGSGGGGSDKTHTCPPCPAPEAAGGPSVFLFPPKPKDTLMISRTPEVTCVVVDVSHEDPEVKFNWYVDGVEVHNAKTKPREEQYNSTYRVVSVLTVLHQDWLNGKEYKCKVSNKALPAPIEKTISKAKGQPREPQVCTLPPSREEMTKNQVSLSCAVKGFYPSDIAVEWESNGQPENNYKTTPPVLDSDGSFFLVSKLTVDKSRWQQGNVFSCSVMHEALHNHYTQKSLSLSPGK
light: DIQMTQSPSSLSASVGDRVTITCRASQDIGSNLNWLQQKPGKAIKRLIYATFGLDSGVPSRFSGSRSGTDFTLTISSLQPEDFATYYCQQYASFPYTFGGGTKVEIKRTVAAPSVFIFPPSDEQLKSGTASVVCLLNNFYPREAKVQWKVDNALQSGNSQESVTEQDSKDSTYSLSSTLTLSKADYEKHKVYACEVTHQGLSSPVTKSFNRGEC
B11: Bis-40E9-L2H11 (bispecific antibody)
heavy 1: not shown
heavy 2: B10 heavy 2 with D336R, G337A
light: B10 light
notes: Fab-scFv-Fab format with LALA mutations; copies: 1 + 1 + 2
B12: Bis-40E9-L2H3-D105R.H (bispecific antibody)
heavy 1: not shown
heavy 2: B10 heavy 2 with D336R
light: B10 light
notes: Fab-scFv-Fab format with LALA mutations
B13: Bis-40E9-L2H7 (bispecific antibody)
heavy 1: not shown
heavy 2: B10 heavy 2 with Y285G, D287G, Y333S
light: B10 light
notes: as for B12
B14: Bis-40E9-L2H3-N55S.H (bispecific antibody, human IgG1, kappa, L234A L235A)
heavy 1: not shown
heavy 2: B10 heavy 2 with N286S
light: B10 light
B15: Bis-40E9-L2H3-D56G.H (bispecific antibody)
heavy 1: not shown
heavy 2: B10 heavy 2 with D287G
light: B10 light
notes: as for B12
B16: Bis-40E9-L2H3-Y101F.H (bispecific antibody)
heavy 1: not shown
heavy 2: B10 heavy 2 with Y332F
light: B10 light
notes: as for B12

Each binder was assayed against T1, GPRC5D on multiple myeloma cells (human, UniProt Q9NZD1 1-345) (assay: FACS on MM.1S cells).
T1 construct: whole, on cells; Endogenous GPRC5D on multiple myeloma cell lines; also called G-protein coupled receptor family C group 5 member D; MM.1S, MOLP-8, L363, RPMI8226 cells
T1 sequence (Q9NZD1 whole entry): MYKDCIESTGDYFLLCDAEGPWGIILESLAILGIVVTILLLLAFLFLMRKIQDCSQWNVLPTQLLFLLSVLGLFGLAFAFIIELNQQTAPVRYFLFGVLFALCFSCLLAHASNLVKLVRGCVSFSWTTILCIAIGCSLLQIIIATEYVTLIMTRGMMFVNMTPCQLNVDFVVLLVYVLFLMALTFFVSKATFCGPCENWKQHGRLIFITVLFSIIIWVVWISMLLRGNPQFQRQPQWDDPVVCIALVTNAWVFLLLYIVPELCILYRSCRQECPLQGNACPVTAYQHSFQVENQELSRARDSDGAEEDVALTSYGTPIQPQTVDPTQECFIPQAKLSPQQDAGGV

binding result | Binder
binds | B1
binds | B2
binds | B3
binds | B4
binds | B5
binds | B6
binds | B7
binds | B8
binds | B9

What follows are binders tested against T2, CD3 on T cells / Jurkat cells (human, UniProt P07766 23-207; P04234 22-171; P09693 23-182) (assay: FACS on Jurkat cells).
T2 construct: whole, on cells; Native CD3 complex on CD3+ T cells isolated from normal donors or on Jurkat cells; also called human CD3; CD3+ T cells
T2 sequence (P07766 23-207, chain 1 of 3): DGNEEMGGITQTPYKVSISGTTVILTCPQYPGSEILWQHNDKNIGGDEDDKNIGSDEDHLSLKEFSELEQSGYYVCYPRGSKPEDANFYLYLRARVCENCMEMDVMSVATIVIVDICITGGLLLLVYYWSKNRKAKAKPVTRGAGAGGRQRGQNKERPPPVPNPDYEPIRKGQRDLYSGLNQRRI
T2 sequence (P04234 22-171, chain 2 of 3): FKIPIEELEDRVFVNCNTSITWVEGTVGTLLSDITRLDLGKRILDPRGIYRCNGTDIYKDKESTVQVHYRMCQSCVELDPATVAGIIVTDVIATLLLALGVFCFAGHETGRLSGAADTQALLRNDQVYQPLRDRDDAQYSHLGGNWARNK
T2 sequence (P09693 23-182, chain 3 of 3): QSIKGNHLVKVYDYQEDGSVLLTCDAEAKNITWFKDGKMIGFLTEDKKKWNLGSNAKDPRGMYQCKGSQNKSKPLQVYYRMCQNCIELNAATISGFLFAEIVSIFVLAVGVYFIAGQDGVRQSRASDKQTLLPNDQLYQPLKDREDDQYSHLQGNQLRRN

binding result | Binder
binds | B1
binds | B2
binds | B3
binds | B4
binds | B5
binds | B6
binds | B7
binds | B8
binds | B9

Each binder was assayed against T3, GPRC5D on MM.1S cells (human, UniProt Q9NZD1 1-345) (assay: cell-based or functional assay).
T3 sequence (Q9NZD1 whole entry): as the sequence (Q9NZD1 whole entry) above

Binder | Ratio of IC50 (relative to ATG-Bis-40E9), MM.1S cytotoxicity | Ratio of Top cytotoxicity (relative to ATG-Bis-40E9), MM.1S cytotoxicity
B10 | 0.23 ratio | 1.04 ratio
B11 | 13.7 ratio | 1 ratio
B12 | 0.86 ratio | 1.01 ratio
B13 | 3.21 ratio | 0.98 ratio
B14 | 1.06 ratio | 1 ratio
B15 | 0.99 ratio | 1 ratio
B16 | 1.94 ratio | 1.03 ratio

Target: T3, GPRC5D on MM.1S cells
Test: cell-based or functional assay
Remark: another data set of the same source

Ratio of EC50 (relative to ATG-Bis-40E9), luciferase assay on MM.1S | Ratio of Top RLU (relative to ATG-Bis-40E9), luciferase assay on MM.1S | Binder
3.25 ratio | 1.09 ratio | B10
26.2 ratio | 1.24 ratio | B11
1.32 ratio | 0.79 ratio | B12
2.79 ratio | 0.85 ratio | B13
1.33 ratio | 0.75 ratio | B14
0.81 ratio | 1.01 ratio | B15
4.89 ratio | 1.57 ratio | B16

The binders below were run against T3, GPRC5D on MM.1S cells (assay: FACS on MM.1S cells).
Summary of the method: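 Binding to MM.1S cells measured by flow cytometry; cells incubated with antibody dilutions for 1 h at 4 degrees in PBS + 1% BSA, washed, then stained with secondary antibody for 0.5 h at 4 degrees before fluorescence read-out.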

Ratio of EC50 (relative to ATG-Bis-40E9) | Ratio of Top MFI (relative to ATG-Bis-40E9) | Binder
1.19 ratio | 0.997 ratio | B10
5.78 ratio | 1.47 ratio | B11
2.5 ratio | 1.25 ratio | B13
1.27 ratio | 0.954 ratio | B16

These binders were tested against T4, CD3 on Jurkat cells (UniProt P07766 23-207; P04234 22-171; P09693 23-182) (assay: FACS on Jurkat cells).
T4 construct: whole, on cells; On the cell, CD3 stands in the TCR-CD3 complex; also called cluster of differentiation 3
T4 sequence (P07766 23-207, chain 1 of 3): as the sequence (P07766 23-207, chain 1 of 3) above
T4 sequence (P04234 22-171, chain 2 of 3): as the sequence (P04234 22-171, chain 2 of 3) above
T4 sequence (P09693 23-182, chain 3 of 3): as the sequence (P09693 23-182, chain 3 of 3) above
Description: The binding affinities of the generated humanized Fab-scFv-Fab bispecific antibodies were determined by FACS analysis. […] (a) Jurkat cells were washed by Staining Buffer (PBS+1% BSA) in round bottom 96-well plate. [0833] (b) Antibody dilutions and cells were added to each well, incubated at 4 degrees for 1 hour. [0834] (c) Cells were spined down at 300 g for 3 minutes, and the supernatants were discarded. [0835] (d) Cells were washed with Staining Buffer. […] (e) Step (d) was repeated and the cells were incubated for 0.5 hours at 4 degrees with secondary antibody in Staining Buffer. [0837] (f) After incubation, step (d)-(e) were repeated. […] (g) Staining Buffer was added and fluorescence signals were recorded by flow cytometry.
The binding affinities of the generated humanized Fab-scFv-Fab bispecific antibodies were determined by FACS analysis. The protocol for FACS analysis is identical to that described in Example 3.2, except that different test antibodies were used.

Ratio of EC50 (relative to ATG-Bis-40E9) | Ratio of Top MFI (relative to ATG-Bis-40E9) | Binder
1.65 ratio | 0.77 ratio | B10
7.88 ratio | 6.35 ratio | B11
4.53 ratio | 1.17 ratio | B12
1.24 ratio | 0.68 ratio | B13
167 ratio |  | B14
2.41 ratio | 0.55 ratio | B15
13.6 ratio |  | B16

Reference: US20260193348A1 (ANTENGENE BIOLOGICS, published 2026)
